Values joined by “and” are separate entries in the source; they are usually repeats but may differ in a detail not shown here. Equal values may be shown once. Read-outs that look alike come from different tables or passages of the source.
Legend:
[1] = target: full length human APOBEC3G (human) (UniProt Q9HC16); assay: atomic force microscopy (protein volume analysis); 80 nM A3G with 4 nM hybrid DNA; 50 mM HEPES pH 7.5, 100 mM NaCl, 5 mM MgCl2, 1 mM DTT, 37 °C 30 min; on APS-mica, tapping mode in air; stoichiometry of A3G on the DNA from volume
[2] = target: full length human APOBEC3G (human) (UniProt Q9HC16); assay: atomic force microscopy (protein volume analysis); 32 nM A3G with 4 nM hybrid DNA; 50 mM HEPES pH 7.5, 100 mM NaCl, 5 mM MgCl2, 1 mM DTT, 37 °C 30 min; on APS-mica, tapping mode in air; stoichiometry of A3G on the DNA from volume; fractions from areas under the Gaussians
[3] = target: full length human APOBEC3G (human) (UniProt Q9HC16); assay: atomic force microscopy (protein volume analysis); 16 nM A3G with 4 nM hybrid DNA; 50 mM HEPES pH 7.5, 100 mM NaCl, 5 mM MgCl2, 1 mM DTT, 37 °C 30 min; on APS-mica, tapping mode in air; stoichiometry of A3G on the DNA from volume
[4] = target: full length human APOBEC3G (human) (UniProt Q9HC16); assay: atomic force microscopy (protein volume analysis); 80 nM A3G with 4 nM hybrid DNA; 50 mM HEPES pH 7.5, 100 mM NaCl, 5 mM MgCl2, 1 mM DTT, 37 °C 30 min; on APS-mica, tapping mode in air; stoichiometry of A3G on the DNA from volume; remark: listed apart in the source

- percent of A3G-DNA complexes with A3G trimers [1]: 82%
- percent of A3G-DNA complexes with higher order A3G oligomers [1]: 18%
- stoichiometry N [1]: 6
- percent of A3G-DNA complexes with A3G dimers [2]: 78%
- percent of A3G-DNA complexes with A3G tetramers [2]: 22%
- stoichiometry N [2]: 2 and 4
- stoichiometry N [3]: 2 and 3
- percent of A3G-DNA complexes with A3G trimers [4]: 88%
- percent of A3G-DNA complexes with higher order A3G oligomers [4]: 12%
- stoichiometry N [4]: 3
Substance: full length human APOBEC3G (from UniProt Q9HC16 1-384) (enzyme)

From PMC6298963
